These results are taken from patent US20190338002A1 (Pieris, published 2019).

Broadly, the Kd is the constant that tells how readily two partners part at equilibrium. A low value points to higher affinity. What is called koff is a measure of how fast the partners let go of each other. By kon is commonly meant the second-order rate constant of association. Read a high kon as fast association.

Changes are numbered by the printed parent chain.

Assay [1] addresses T1, rat beta CGRP (SEQ ID NO: 83) (rat, not fully specified).
T1 construct: also called rat βCGRP; rat β-CGRP
T1 peptide: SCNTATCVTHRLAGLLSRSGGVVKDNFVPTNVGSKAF
In words: SPR, 37 C, mutein captured, CGRP analyte. Here is the method: (§1) The Biotin CAPture Kit (GE Healthcare) was used to immobilize biotinylated lipocalin muteins to a chip surface. Muteins were biotinylated using standard NHS chemistry. Undiluted Biotin CAPture Reagent (streptavidin conjugated with ss-DNA oligo) was captured on a Sensor Chip CAP with the pre-immobilized complementary ss-DNA oligo. Thereafter, biotinylated muteins at 1 μg/mL were applied for 300 s at a flow rate of 5 μL/min.
(§2) CGRP species were applied in three concentrations of 30 nM, 3 nM and 0.3 nM at a flow rate of 30 μL/min or in a single concentration of 25 nM per cycle as shown in FIG. 2. The dilutions were injected with association times of 180 s and dissociation times of 5400 sec to obtain ka and kd information. Regeneration of the chip surface was achieved by injecting 6 M Guanidinium-HCl+0.25 M NaOH (120 s) with a flow rate of 10 μL/min. Injection of regeneration solutions was followed by an extra wash step with HBS-EP+(1×; BR-1006-69; GE Healthcare) running buffer and a stabilization period of 120 s.
(§3) The data were double-referenced by subtraction of the corresponding signals measured for the control channel (loaded with Biotin CAPture reagent only) and by subtraction of buffer injections from the binding responses. Association rate constant ka and dissociation rate constant kd for the binding reaction were determined using Biacore T200 Evaluation Software V2.0 for data processing and kinetic fitting. The data were globally fit with 1:1 binding model.
On the technique in general: Surface plasmon resonance follows binding to a sensor surface in real time, without labels.

The target in assay [2] is T2, human alpha CGRP (SEQ ID NO: 80) (human, not fully specified).
T2 construct: also called human αCGRP; hαCGRP
T2 peptide: T1 peptide with S1A, N3D, D25N
In words: SPR, 37 C, mutein captured, CGRP analyte. Here is the method:
as §1, §2, §3

The target in assay [3] is T3, human beta CGRP (SEQ ID NO: 81) (human, not fully specified).
T3 construct: also called human βCGRP; hβCGRP
T3 peptide: T1 peptide with S1A, V22M, D25S
In words: SPR, 37 C, mutein captured, CGRP analyte. Here is the method:
as §1, §2, §3

Assay [4] addresses T4, rat alpha CGRP (SEQ ID NO: 82) (rat).
T4 construct: also called rat αCGRP; rat α-CGRP
T4 peptide: T1 peptide with K35E
In words: SPR, 37 C, mutein captured, CGRP analyte. On the procedure: as §1, §2, §3

For assay [5], the target named is T2, human alpha CGRP (SEQ ID NO: 80). In words: cell-based or functional assay.
Assay [6] addresses T3, human beta CGRP (SEQ ID NO: 81). In words: cell-based or functional assay.
The target of assay [7] is T1, rat beta CGRP (SEQ ID NO: 83). Description: cell-based or functional assay.
Assay [8] addresses T2, human alpha CGRP (SEQ ID NO: 80). In words: cell-based or functional assay.
In assay [9] the target is T3, human beta CGRP (SEQ ID NO: 81). Description: cell-based or functional assay.
The target in assay [10] is T4, rat alpha CGRP (SEQ ID NO: 82). Description: cell-based or functional assay.
The target of assay [11] is T2, human alpha CGRP (SEQ ID NO: 80). Description: SPR as in Example 5. On the procedure:
as §1, §2

For assay [12], the target named is T3, human beta CGRP (SEQ ID NO: 81). In words: SPR as in Example 5. On the procedure:
as §1, §2

Assay [13] has as its target T2, human alpha CGRP (SEQ ID NO: 80). Description: cell-based or functional assay.
For assay [14] the target is unchanged. Description: SPR, Biacore T200, 37 C; biotinylated mutein captured, human alpha CGRP analyte. Here is the method:
The Biotin CAPture Kit (GE Healthcare) was used to immobilized biotinylated lipocalin muteins to a chip surface. Muteins were biotinylated using standard NHS chemistry. Fifty-fold diluted Biotin CAPture Reagent (streptavidin conjugated with ss-DNA oligo) was captured on a Sensor Chip CAP with the pre-immobilized complementary ss-DNA oligo. Thereafter, biotinylated muteins at 200 nM were applied for 60 s at a flow rate of 10 μL/min.
The dilutions were injected with association times of 600 s and dissociation times of 1800 s. Regeneration of the chip surface was achieved by injecting 6 M Guanidinium-HCl+0.25 M NaOH (120 s) with a flow rate of 10 μL/min, followed by injecting 30% acetonitrile+0.25 M NaOH (120 s) with a flow rate of 10 μL/min. Injection of regeneration solutions was followed by an extra wash step with HBS-EP+ running buffer and a stabilization period of 60 s.
The data were double-referenced by subtraction of the corresponding signals measured for the control channel (loaded with Biotin CAPture reagent only) and by subtraction of buffer injections from the binding responses. Association rate constant ka and dissociation rate constant kd for the binding reaction were determined using Biacore T200 Evaluation Software version 1.0 for data processing and kinetic fitting. The data were globally fit with 1:1 binding model.

B1: lipocalin mutein SEQ ID NO: 17 (designed binder)
chain: QDSTSDLIPAPPLSKVPLQQNFQDNQFHGKWYVVGRAGNDVLREDKDPEKMEATIYELKEDKSYNVTDVGFVQKRCMYVTHTFVPGSQPGEFTLGNIESYPGVTSALVRVVSTDYNQHAMVFVKLVKQNRELFEITLYGRTKELTSELKENFIRFSKSLGLPENHIVFPVPIDQCIDGSAWSHPQFEK
notes: biotinylated by NHS chemistry for capture in SPR
For the molecule B1, the Kd in assay [1] was determined as 12 pM; in assay [2], 11 pM; in assay [3] it was 1 pM; in assay [4], 31 pM; in assay [11], 20 pM; in [12], 3 pM. The koff in [1] was 5.99e-05 s⁻¹; in [2], 3.66e-05 s⁻¹; in assay [3], 1.44e-05 s⁻¹; in assay [4] it was 8.44e-05 s⁻¹. Moreover, the kon in [1] came to 5.18e+06 M⁻¹ s⁻¹; in assay [2], 3.34e+06 M⁻¹ s⁻¹; in assay [3], 1.36e+07 M⁻¹ s⁻¹; in [4] it was 2.75e+06 M⁻¹ s⁻¹. Moreover, the entries for the “cAMP assay IC50, SK-N-MC cells” value in [5] and in assay [6] were 90 pM and 130 pM, respectively. Also, the “IC50, CGRP-induced cAMP production, L6 cells” value stood at 110 pM in [7] and 60 pM in assay [10]. The “IC50, CGRP-induced cAMP production, SK-N-MC cells” value in assay [8] stood at 110 pM; in assay [9], 230 pM.

B2: lipocalin mutein SEQ ID NO: 20 (designed binder)
chain: B1 chain with V41T, E44K, R75K, T80I, E98K, D114N
notes: as for B1
For B2, the Kd was 13 pM in [1], 12 pM in assay [2], 4 pM in assay [3] and 28 pM in assay [4]. Besides, the koff in assay [1] was found to be 1.84e-05 s⁻¹; in assay [2], 1.75e-05 s⁻¹; in [3], 7.89e-06 s⁻¹; in assay [4], 2.41e-05 s⁻¹. The kon is 1.38e+06 M⁻¹ s⁻¹ in [1], 1.45e+06 M⁻¹ s⁻¹ in [2], 2.18e+06 M⁻¹ s⁻¹ in assay [3] and 867000 M⁻¹ s⁻¹ in assay [4]. Also, the “IC50, CGRP-induced cAMP production, L6 cells” value came to 110 pM in assay [7] and 80 pM in assay [10]. The “IC50, CGRP-induced cAMP production, SK-N-MC cells” value was 140 pM in [8] and 170 pM in assay [9].

B3: tag-free lipocalin mutein SEQ ID NO: 87 (designed binder)
chain: GQDSTSDLIPAPPLSKVPLQQNFQDNQFQGKWYVVGWAGNTLLREDKDPIKMQAMIYELKEDKSYNVTWVYFADKKINYHIETFVPGSQPGEFTLGTIKSYPGETPILVRVVSTNYNQHAMVFFKGVNQNREIFEIVLYGRTKELTNELKENFIRFSKSLGLPENHIVFPVPIDQEIDG
notes: biotinylated by NHS chemistry for capture in SPR; also called tag-free mutein 87
As for B3, in [13], the “cAMP assay IC50” value stood at 660 pM. Also, the Kd in [14] turned out to be 81 pM.

B4: tag-free lipocalin mutein SEQ ID NO: 88 (designed binder)
chain: GQDSTSDLIPAPPLSKVPLQQNFQDNQFHGKWYVVGRAGNDVLREDKDPEKMEATIYELKEDKSYNVTDVGFVQKRCMYVTHTFVPGSQPGEFTLGNIESYPGVTSALVRVVSTDYNQHAMVFVKLVKQNRELFEITLYGRTKELTSELKENFIRFSKSLGLPENHIVFPVPIDQCIDG
notes: biotinylated by NHS chemistry for capture in SPR; also called tag-free mutein 88
As to B4, the “cAMP assay IC50” value in assay [13] is 170 pM. This molecule registered a Kd in assay [14] of 8 pM.

B5: tag-free lipocalin mutein SEQ ID NO: 93 (designed binder)
chain: B4 chain with P10H, N66Q, G179D
notes: biotinylated by NHS chemistry for capture in SPR; also called tag-free mutein 93
Take B5: the “cAMP assay IC50” value in [13] amounted to 130 pM. The equilibrium dissociation constant (Kd) in assay [14] turned out to be 11 pM.

B6: tag-free lipocalin mutein SEQ ID NO: 90 (designed binder)
chain: B4 chain with I9K
notes: biotinylated by NHS chemistry for capture in SPR; also called tag-free mutein 90
With B6, in assay [13], the “cAMP assay IC50” value was determined as 160 pM. The molecule further yielded a Kd in assay [14] of 12 pM.

B7: tag-free lipocalin mutein SEQ ID NO: 92 (designed binder)
chain: B4 chain with I9K, N66Q, G179D
notes: biotinylated by NHS chemistry for capture in SPR; also called tag-free mutein 92
On to B7, for which the “cAMP assay IC50” value in assay [13] came out at 180 pM. The molecule also had a Kd in assay [14] of 10 pM.

B8: tag-free lipocalin mutein SEQ ID NO: 89 (designed binder)
chain: B4 chain with N66Q, G179D
notes: biotinylated by NHS chemistry for capture in SPR; also called tag-free mutein 89
For B8, the “cAMP assay IC50” value in assay [13] was determined as 170 pM. In [14], this molecule registered a Kd of 6 pM.

B9: tag-free lipocalin mutein SEQ ID NO: 91 (designed binder)
chain: B4 chain with P10H
notes: biotinylated by NHS chemistry for capture in SPR; also called tag-free mutein 91
For the molecule B9, the “cAMP assay IC50” value in assay [13] worked out at 160 pM. The molecule further returned a Kd in assay [14] of 10 pM.
